These results are taken from paper PMC10426277.

In this test the target is Peroxiredoxin 4 wildtype, recombinant full-length (human) (UniProt Q13162). In words: SPR.

Chain of Sulfiredoxin (Srx), recombinant full-length (Q9BYN0 whole entry): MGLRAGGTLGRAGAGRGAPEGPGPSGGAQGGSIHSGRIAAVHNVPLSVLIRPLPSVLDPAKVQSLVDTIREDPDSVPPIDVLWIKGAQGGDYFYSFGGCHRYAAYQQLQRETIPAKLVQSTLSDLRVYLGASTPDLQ

As to “Sulfiredoxin (Srx), recombinant full-length (from UniProt Q9BYN0 1-137) (enzyme)”, the Kd worked out at 3.26 mM, the koff came out at 0.00166 s⁻¹ and the kon is 0.509 M⁻¹ s⁻¹.
